Measured values as given in the supplement of paper PMC9112550, “Optimization of the antimicrobial peptide Bac7 by deep mutational scanning” (BMC Biology, 2022).

Tested on: Escherichia coli TOP10
Experiment: shrunken log2 fold change of peptide-encoding DNA abundance (4.5 h post-induction vs induction); higher = less antimicrobial activity (less host growth inhibition)
Conditions: time post-induction: 4.5 h; library: site-saturation at positions 5, 18, 19, 20
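Further: peptides expressed intracellularly from a pBAD plasmid library in pooled LB shake-flask culture, induced with 0.3% L-arabinose, DNA abundance read by NGS, three biological replicates, DESeq2 with apeglm shrinkage.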

| Sequence | shrunken log2 fold change |
| --- | --- |
| RRIRLRPPRLPRPRPRPPNIPRP | -0.346 |
| RRIRSRPPRLPRPRPRPCCLPRP | -0.125 |
| RRIRCRPPRLPRPRPRPIRTPRP | -0.673 |
| RRIRYRPPRLPRPRPRPMTPPRP | -0.0195 |
| RRIRERPPRLPRPRPRPVNDPRP | -0.0156 |
| RRIRDRPPRLPRPRPRPFKMPRP | -0.0853 |
| RRIRIRPPRLPRPRPRPHVRPRP | 0.031 |
| RRIRFRPPRLPRPRPRPSQPPRP | -0.0776 |
| RRIRARPPRLPRPRPRPMSNPRP | -0.433 |
| RRIRFRPPRLPRPRPRPHFAPRP | 0.0808 |
| RRIRLRPPRLPRPRPRPSIAPRP | -0.217 |
| RRIRIRPPRLPRPRPRPHMRPRP | 0.128 |
| RRIRPRPPRLPRPRPRPWHAPRP | -0.0857 |
| RRIRIRPPRLPRPRPRPMDHPRP | -0.0898 |
| RRIRSRPPRLPRPRPRPCQWPRP | -0.134 |
| RRIRHRPPRLPRPRPRPSQEPRP | -0.27 |
| RRIRTRPPRLPRPRPRPTLMPRP | -0.142 |
| RRIRSRPPRLPRPRPRPTRHPRP | 0.227 |
| RRIRHRPPRLPRPRPRPTSEPRP | 0.0261 |
| RRIRCRPPRLPRPRPRPNALPRP | 0.0653 |
| RRIRARPPRLPRPRPRPRHTPRP | 0.419 |
| RRIRPRPPRLPRPRPRPKVIPRP | -0.172 |
| RRIRARPPRLPRPRPRPTAFPRP | 0.815 |
| RRIRSRPPRLPRPRPRPHPDPRP | -0.0132 |
| RRIRVRPPRLPRPRPRPPKIPRP | -0.05 |

| Sequence | shrunken log2 fold change |
| --- | --- |
| RRIRGRPPRLPRPRPRPNAQPRP | 0.836 |
| RRIRRRPPRLPRPRPRPRILPRP | -0.143 |
| RRIRCRPPRLPRPRPRPLCKPRP | -0.541 |
| RRIRTRPPRLPRPRPRPQMTPRP | 0.0824 |
| RRIRNRPPRLPRPRPRPWDNPRP | -0.0545 |
| RRIRCRPPRLPRPRPRPTARPRP | 0.105 |
| RRIRDRPPRLPRPRPRPPYRPRP | 0.0425 |
| RRIRCRPPRLPRPRPRPMPTPRP | 0.592 |
| RRIRCRPPRLPRPRPRPPDHPRP | 0.279 |
| RRIRIRPPRLPRPRPRPSHVPRP | -0.523 |
| RRIRHRPPRLPRPRPRPEAAPRP | 0.83 |
| RRIRVRPPRLPRPRPRPASFPRP | 0.115 |
| RRIRNRPPRLPRPRPRPAGIPRP | -0.0145 |
| RRIRNRPPRLPRPRPRPCFGPRP | 0.0347 |
| RRIRNRPPRLPRPRPRPLETPRP | -0.0418 |
| RRIRYRPPRLPRPRPRPPIRPRP | -0.121 |
| RRIRMRPPRLPRPRPRPDSVPRP | -0.045 |
| RRIRNRPPRLPRPRPRPAHIPRP | 0.00258 |
| RRIRARPPRLPRPRPRPVEMPRP | 0.196 |
| RRIRIRPPRLPRPRPRPSQPPRP | 0.101 |
| RRIRIRPPRLPRPRPRPHRNPRP | -0.846 |
| RRIRERPPRLPRPRPRPFVFPRP | -0.379 |
| RRIRCRPPRLPRPRPRPSVPPRP | -0.784 |
| RRIRWRPPRLPRPRPRPYHVPRP | -0.141 |
| RRIRNRPPRLPRPRPRPCGHPRP | 0.0743 |

| Sequence | shrunken log2 fold change |
| --- | --- |
| RRIRFRPPRLPRPRPRPKLYPRP | -0.481 |
| RRIRPRPPRLPRPRPRPDYTPRP | -0.957 |
| RRIRSRPPRLPRPRPRPFFYPRP | -0.17 |
| RRIRTRPPRLPRPRPRPLNTPRP | -0.602 |
| RRIRQRPPRLPRPRPRPEWSPRP | 0.0925 |
| RRIRNRPPRLPRPRPRPKKEPRP | 0.0493 |
| RRIRPRPPRLPRPRPRPAFVPRP | 0.149 |
| RRIRQRPPRLPRPRPRPRLSPRP | 0.0751 |
| RRIRLRPPRLPRPRPRPMIAPRP | -0.141 |
| RRIRNRPPRLPRPRPRPDSDPRP | -0.00992 |
| RRIRKRPPRLPRPRPRPMMKPRP | 1.05 |
| RRIRHRPPRLPRPRPRPHWKPRP | -0.337 |
| RRIRGRPPRLPRPRPRPLWRPRP | 0.625 |
| RRIRPRPPRLPRPRPRPWPTPRP | 0.438 |
| RRIRSRPPRLPRPRPRPFEVPRP | -0.109 |
| RRIRTRPPRLPRPRPRPHFCPRP | 0.0392 |
| RRIRSRPPRLPRPRPRPNKTPRP | -0.286 |
| RRIRPRPPRLPRPRPRPAWQPRP | 0.277 |
| RRIRSRPPRLPRPRPRPHGDPRP | 0.043 |
| RRIRFRPPRLPRPRPRPHNHPRP | -0.835 |
| RRIRERPPRLPRPRPRPFYRPRP | -0.111 |
| RRIRMRPPRLPRPRPRPTLNPRP | 0.299 |
| RRIRTRPPRLPRPRPRPNLVPRP | -0.149 |
| RRIRHRPPRLPRPRPRPPYYPRP | -0.296 |
| RRIRSRPPRLPRPRPRPEVIPRP | 0.18 |

| Sequence | shrunken log2 fold change |
| --- | --- |
| RRIRNRPPRLPRPRPRPYIQPRP | -0.244 |
| RRIRYRPPRLPRPRPRPCCLPRP | -0.203 |
| RRIRERPPRLPRPRPRPIGPPRP | -0.138 |
| RRIRNRPPRLPRPRPRPMWWPRP | -0.0071 |
| RRIRFRPPRLPRPRPRPLITPRP | -0.503 |
| RRIRYRPPRLPRPRPRPLSIPRP | -0.129 |
| RRIRSRPPRLPRPRPRPCGWPRP | 0.148 |
| RRIRWRPPRLPRPRPRPQGCPRP | 0.0267 |
| RRIRVRPPRLPRPRPRPVLGPRP | 0.299 |
| RRIRKRPPRLPRPRPRPHEPPRP | 0.0467 |
| RRIRHRPPRLPRPRPRPNSKPRP | -0.737 |
| RRIRIRPPRLPRPRPRPPRDPRP | 0.203 |
| RRIRGRPPRLPRPRPRPWTQPRP | 0.236 |
| RRIRQRPPRLPRPRPRPMANPRP | -0.18 |
| RRIRWRPPRLPRPRPRPCNCPRP | -0.289 |
| RRIRCRPPRLPRPRPRPRAVPRP | 0.405 |
| RRIRGRPPRLPRPRPRPLPKPRP | 0.943 |
| RRIRYRPPRLPRPRPRPSGEPRP | -0.187 |
| RRIRTRPPRLPRPRPRPVMIPRP | -0.126 |
| RRIRERPPRLPRPRPRPKDAPRP | -0.222 |
| RRIRCRPPRLPRPRPRPGFSPRP | -0.257 |
| RRIRFRPPRLPRPRPRPYNYPRP | -1.03 |
| RRIRVRPPRLPRPRPRPPVCPRP | 0.191 |
| RRIRARPPRLPRPRPRPFGKPRP | 0.0252 |
| RRIRLRPPRLPRPRPRPNQQPRP | 0.0291 |

| Sequence | shrunken log2 fold change |
| --- | --- |
| RRIRFRPPRLPRPRPRPYYSPRP | -0.228 |
| RRIRDRPPRLPRPRPRPLVSPRP | 0.469 |
| RRIRGRPPRLPRPRPRPVMEPRP | 0.546 |
| RRIRQRPPRLPRPRPRPRAFPRP | 0.317 |
| RRIRRRPPRLPRPRPRPIHWPRP | -0.0227 |
| RRIRRRPPRLPRPRPRPITSPRP | -0.00199 |
| RRIRMRPPRLPRPRPRPKDTPRP | 1.86 |
| RRIRMRPPRLPRPRPRPADVPRP | 0.0241 |
| RRIRWRPPRLPRPRPRPFVPPRP | -0.266 |
| RRIRPRPPRLPRPRPRPANQPRP | 0.0414 |
| RRIRGRPPRLPRPRPRPHCGPRP | -0.0798 |
| RRIRVRPPRLPRPRPRPDDFPRP | 0.0492 |
| RRIRIRPPRLPRPRPRPDTTPRP | -0.243 |
| RRIRMRPPRLPRPRPRPWFTPRP | -0.263 |
| RRIRGRPPRLPRPRPRPCWEPRP | -0.000921 |
| RRIRHRPPRLPRPRPRPSPQPRP | -0.358 |
| RRIRHRPPRLPRPRPRPIAEPRP | -0.103 |
| RRIRWRPPRLPRPRPRPGQEPRP | 0.617 |
| RRIRSRPPRLPRPRPRPSHEPRP | 0.0867 |
| RRIRLRPPRLPRPRPRPKHWPRP | 0.31 |
| RRIRLRPPRLPRPRPRPLIMPRP | -0.435 |
| RRIRGRPPRLPRPRPRPIYDPRP | -0.259 |
| RRIRKRPPRLPRPRPRPPQIPRP | 0.661 |
| RRIRFRPPRLPRPRPRPKYPPRP | -0.31 |
| RRIRTRPPRLPRPRPRPWRIPRP | 0.025 |

| Sequence | shrunken log2 fold change |
| --- | --- |
| RRIRFRPPRLPRPRPRPSTWPRP | -0.000934 |
| RRIRKRPPRLPRPRPRPVAGPRP | 0.127 |
| RRIRHRPPRLPRPRPRPACSPRP | -0.104 |
| RRIRIRPPRLPRPRPRPWVHPRP | -0.0605 |
| RRIRERPPRLPRPRPRPVWRPRP | 0.202 |
| RRIRNRPPRLPRPRPRPLEAPRP | -0.00641 |
| RRIRPRPPRLPRPRPRPYYIPRP | -0.88 |
| RRIRYRPPRLPRPRPRPCQMPRP | -0.255 |
| RRIRKRPPRLPRPRPRPKRDPRP | 0.539 |
| RRIRVRPPRLPRPRPRPGVWPRP | 1.88 |
| RRIRPRPPRLPRPRPRPYCMPRP | -0.505 |
| RRIRQRPPRLPRPRPRPACQPRP | 0.15 |
| RRIRFRPPRLPRPRPRPQMTPRP | -0.169 |
| RRIRDRPPRLPRPRPRPIQFPRP | -0.177 |
| RRIRVRPPRLPRPRPRPPGTPRP | 0.273 |
| RRIRCRPPRLPRPRPRPQGLPRP | 0.161 |
| RRIRARPPRLPRPRPRPHVAPRP | 0.114 |
| RRIRYRPPRLPRPRPRPFMFPRP | -0.861 |
| RRIRFRPPRLPRPRPRPVLDPRP | -0.474 |
| RRIRNRPPRLPRPRPRPAGGPRP | 0.16 |
| RRIRKRPPRLPRPRPRPSILPRP | -0.11 |
| RRIRTRPPRLPRPRPRPAEMPRP | -0.253 |
| RRIRRRPPRLPRPRPRPNFRPRP | 0.0627 |
| RRIRVRPPRLPRPRPRPVLCPRP | 0.0228 |
| RRIRKRPPRLPRPRPRPYWDPRP | -0.219 |
